Results as given in US20050009042A1 (AVENTIS PHARMA S A, published 2005).
Each block holds one molecule with its values, some of them ahead of it.

T1: MT2R-Luc, protein from fusion of the melatonin receptor MT2 with luciferase (UniProt P49286 1-362)
T1 construct: whole, on cells; Control fusion protein; also called melatonin-Luc MT2 receptor
T1 sequence (looked up): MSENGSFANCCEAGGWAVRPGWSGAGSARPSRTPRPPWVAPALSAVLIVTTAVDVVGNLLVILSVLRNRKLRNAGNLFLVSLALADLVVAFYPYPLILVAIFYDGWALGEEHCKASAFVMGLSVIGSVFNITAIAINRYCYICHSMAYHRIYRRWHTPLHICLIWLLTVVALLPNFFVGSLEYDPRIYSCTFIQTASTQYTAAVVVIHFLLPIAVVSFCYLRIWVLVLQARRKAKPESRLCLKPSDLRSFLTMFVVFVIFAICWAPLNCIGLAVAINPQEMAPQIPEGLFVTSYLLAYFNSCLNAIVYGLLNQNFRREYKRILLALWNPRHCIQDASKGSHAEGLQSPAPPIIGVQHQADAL

B1: MYO47-Luc (other)
chain: MAGIKALISLSFGGAIGLMFLMLGCALPIYNKYWPLFVLFFYILSPIPYCIARRLVDDTDAMSNACKELAIFLTTGIVVSAFGLPIVFARAHLIEWGACALVLTGNTVIFATILGFFLVFGSNDDFSWQQW
notes: also called MY047-Rluc; not shown: Renilla luciferase (vector pcDNA3-Rluc)
B2: MYO47-YFP (other)
chain: B1 chain
notes: also called MY047-YFP; not shown: YFP (Topaz, vector pcDNA3-YFP)
B3: OB-RGRP-YFP (other)
chain: MAGVKALVALSFSGAIGLTFLMLGCALEDYGVYWPLFVLIFHAISPIPHFIAKRVTYDSDATSSACRELAYFFTTGIVVSAFGFPVILARVAVIKWGACGLVLAGNAVIFLTIQGFFLIFGRGDDFSWEQW
notes: Expressed in HeLa or HEK cells from pcDNA3-OB-RGRP-YFP; also called OB-RGRP tagged with YFP at its C-terminal tail; OB-RGRP-YFB; not shown: YFP coding region from vector pGFPtpz-N1 (Cytogem-Topaze, Packard)
B4: 6Myc-OB-RGRP (4TM) (other)
chain: B3 chain
notes: not shown: The N-terminal 6xMyc tag (the 6myc fragment of pCDNA3-RSV-6Myc) and its junction
B5: OB-RGRP-Luc (other)
chain: B3 chain
notes: Expressed in cells from pcDNA3-OB-RGRP-Luc; also called OB-RGRP-Rluc; not shown: Renilla luciferase, coding region from vector pRL-CMV (Promega)
B6: YFP-OB-RGRP (other)
chain: B3 chain
notes: The construction of this plasmid is not described on its own; only the double fusion YFP-OB-RGRP-Luc is; also called OB-RGRP tagged at the N-terminal with YFP; not shown: YFP (Topaz, from pGFPtpz-N1) at the N-terminus

What was measured:
OB-Rl = assay: cell-based or functional assay
[1] = target: T2, IR-YFP, protein from fusion of the insulin receptor with YFP (UniProt P06213 28-1382); assay: BRET in living cells, equimolar coexpression
T2 construct: whole, on cells; Control fusion protein; also called construct of the insulin receptor tagged with YFP; not shown: YFP
Procedure: (§1) 48 h after transfection, the COS-7, HeLa or HEK 293 cells expressing the OB-R fusion proteins were detached and washed in PBS. 1-2×10⁵ cells were distributed into wells of optiplate plates (96-well, Packard Instrument Company, Meriden, Conn.) in the presence or absence of the ligands, and incubated at 25° C. Alternatively, the same procedure was carried out with membranes prepared from the cells expressing the various constructs. The substrate, coelenterazine h (Molecular Probes, Eugene, Oreg.), was added at a final concentration of 5 μmol.L⁻¹ and the readings were carried out with a Fusion™ luminometer/fluorimeter (Packard Instrument Company, Meriden, Conn.), which makes it possible to measure luminescence through two filters (luciferase filter: 485±10 nm; YFP filter: 530±12.5 nm). The BRET ratio was defined as the difference in emission at 530 nm/485 nm of the cells cotransfected with the Luc and YFP fusion proteins and the emission at 530 nm/485 nm of the Luc fusion protein transfected alone into the cells. The results are expressed as milliBRET units (mBU), 1 mBRET corresponding to the values of the differences in the ratios multiplied by 1000.
(§2) We used BRET technology to study a possible interaction between OB-R and OB-RGRP in living cells. An energy transfer was constitutively observed in the cells coexpressing the OB-Rₛ-Luc construct and the OB-RGRP-YFP construct, indicating proximity of the interaction partners (FIG. 7). The same results were obtained in cells coexpressing OB-Rₛ-Luc and the MYO47-YFP construct, and also in the reverse orientation: in cells coexpressing OB-RGRP-Luc and OB-Rₛ-YFP, or in cells coexpressing MYO47-Luc and OB-Rₛ-YFP. The specificity of these interactions was confirmed by the lack of energy transfer between OB-Rₛ-Luc, OB-RGRP-Luc, MYO47-Luc and a construct of the insulin receptor tagged with YFP (Boute et al. (2001) Mol Pharmacol 60, 640-645), and also in the reverse orientation: by the lack of energy transfer between a construct of the insulin receptor tagged with Luc and the OB-Rₛ-YFP, OB-RGRP-YFP and MYO47-YFP construct.

[2] = target: T3, construct of the insulin receptor tagged with Luc (UniProt P06213 28-1382); assay: BRET in living cells, equimolar coexpression
T3 construct: whole, on cells; Control fusion protein; also called IR-Luc
Procedure: as §1, §2

[3] = target: T1, MT2R-Luc, protein from fusion of the …; assay: BRET in living HEK cells, equimolar coexpression
Procedure: (§3) Study of the oligomerization of OB-RGRP in live HEK cells, by BRET technology. FIG. 6a: the fusion proteins indicated were coexpressed at an equimolar ratio, and BRET measurement experiments were carried out. FIG. 6b: constant amounts of the plasmid OB-RGRP-Luc were coexpressed with increasing amounts of the plasmid OB-RGRP-YFP and BRET measurements were carried out. MT2R-Luc, protein from fusion of the melatonin receptor MT2 with luciferase.
as §1, with “The BRET ratio was defined as the difference in emission at 530 nm/485 nm of the cells cotransfected with the Luc and YFP fusion proteins and the emission at 530 nm/485 nm of the Luc fusion protein transfected alone into the cells.” left out, “1000. […]” for “1000.”

OB-RGRP-Luc [4] = target: B5; assay: BRET in living HEK cells; the signal also rises hyperbolically to saturation with the OB-RGRP-YFP/OB-RGRP-Luc ratio
Procedure: as §3
as §1, with “The BRET ratio was defined as the difference in emission at 530 nm/485 nm of the cells cotransfected with the Luc and YFP fusion proteins and the emission at 530 nm/485 nm of the Luc fusion protein transfected alone into the cells.” left out, “1000. […]” for “1000.”

[5] = target: the molecule itself; assay: SDS-PAGE and anti-YFP immunoblot of HeLa cell lysates, with or without DSP crosslinker; self-association
Procedure: (§4) Study of the oligomerization of OB-RGRP with SDS-PAGE experiments and immunoprecipitations. FIG. 4a: the cells expressing the fusion proteins indicated were treated or not treated with 2 mmol.L⁻¹ dithiobis(succinimidyl propionate) (DSP) in PBS (1×, pH7.4) in order to crosslink the protein complexes. The proteins were separated by SDS-PAGE and the proteins from fusions with YFP were detected using a specific anti-YFP antibody. FIG. 4b: the cells expressing the construct 6Myc-OB-RGRP were solubilized with 1% of digitonin or 5% of SDS and the solubilized material was immunoprecipitated with an anti-myc antibody. The precipitates were subjected to separation by SDS-PAGE and the proteins tagged with myc were detected with an anti-myc antibody.
(§5) The total lysates were prepared by washing the cells once with cold PBS (pH 7.4) and denatured by adding loading buffer (30 mmol.L⁻¹ Tris HCl, pH 6.8, 1% glycerol, 5% SDS, 50 mmol.L⁻¹ DTT and 0.05% bromophenol blue). The total lysates or the immunoprecipitates were incubated for 10 minutes at 90° C. and then loaded onto 10% acrylamide gel for separation by electrophoresis (SDS-PAGE).
OB-RGRP was tagged with YFP at its C-terminal tail and expressed in HeLa cells. The proteins were separated by polyacrylamide gel electrophoresis under denaturing conditions (SDS-PAGE) and immunoblotting experiments were carried out with an anti-YFP antibody. […]

[6] = target: the molecule itself; assay: anti-myc immunoprecipitation, SDS-PAGE and anti-myc blot; self-association
OB-RGRP-Luc [7] = target: B5; assay: BRET in living HEK cells, equimolar coexpression
Procedure: as §3
as §1, with “The BRET ratio was defined as the difference in emission at 530 nm/485 nm of the cells cotransfected with the Luc and YFP fusion proteins and the emission at 530 nm/485 nm of the Luc fusion protein transfected alone into the cells.” left out, “1000. […]” for “1000.”

[8] = target: the molecule itself; assay: SDS-PAGE and anti-YFP immunoblot; self-association
Procedure: as §4, §5

activation of a luciferase reporter gene under STAT3-response elements, EC50 (OB-Rl): 0.05 nM
activation of a luciferase reporter gene under STAT5-response elements, EC50 (OB-Rl): 0.05 nM
increase in the basal activation of the reporter gene for STAT3 (OB-Rl): 1.5 fold
Molecule: leptin (ligand)

Molecule: B1
binding result [1]: no binding

Molecule: B2
binding result [2]: no binding

Molecule: B3
binding result [3]: no binding
binding result (OB-RGRP-Luc [4]): binds
binding result [2]: no binding
binding result [5]: binds

Molecule: B4
binding result [6]: binds

Molecule: B5
binding result [1]: no binding

Molecule: B6
binding result (OB-RGRP-Luc [7]): binds
binding result [8]: binds
